From PMC10350043 come the findings set out here.

Where no end group is shown, it is not given here. QXL520 = dark acceptor

Assay in all cases: FRET or BRET
(In general: Bioluminescence resonance energy transfer reports proximity on the nanometre scale.)

In assay [1] the target is RyR2 in cardiac SR membranes decorated with D-85-FKBP (porcine (endogenous in porcine heart) | human).
The target of assay [2] is RyR2 in cardiac SR membranes decorated with D-32-FKBP (porcine (endogenous in porcine heart) | human).
Assay [3] addresses RyR2 in cardiac SR membranes decorated with D-49-FKBP (porcine (endogenous in porcine heart) | human).

B1: acceptor-labeled DPc10 (QXL520 at the N-terminus) (peptide)
peptide: QXL520-GFCPDHKAAMVLFLDRVYGIEVQDFLLHLLEVGFLP
One may read the Kd as the free concentration of one partner at which half of the binding sites on the other are occupied at equilibrium, for simple one-to-one binding. Lower therefore signals higher affinity. For the molecule B1, the Kd in assay [1] was 10.4 µM; in assay [2], 13.1 µM; in assay [3] it was 9.9 µM.
